According to patent US8632988:

How the values were obtained:
mouse hemoglobin (mouse) = mouse hemoglobin (mouse) (UniProt P01942); experiment: cell-based or functional assay
human hemoglobin (human) = human hemoglobin (human) (UniProt P69905); experiment: cell-based or functional assay
Chain of UniProt P69905 (P69905 2-142, chain 1 of 2): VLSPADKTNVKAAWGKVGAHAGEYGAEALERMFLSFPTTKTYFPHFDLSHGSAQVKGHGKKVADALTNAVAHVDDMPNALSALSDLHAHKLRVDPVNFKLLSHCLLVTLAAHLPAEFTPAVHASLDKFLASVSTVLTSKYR
Chain of UniProt P69905 (P68871 2-147, chain 2 of 2, further chain): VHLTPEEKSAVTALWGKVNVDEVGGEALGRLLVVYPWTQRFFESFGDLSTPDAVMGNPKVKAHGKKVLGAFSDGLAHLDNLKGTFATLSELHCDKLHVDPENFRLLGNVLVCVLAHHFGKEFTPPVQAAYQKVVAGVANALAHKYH

Chain of UniProt P01942 (P01942 2-142, chain 1 of 2): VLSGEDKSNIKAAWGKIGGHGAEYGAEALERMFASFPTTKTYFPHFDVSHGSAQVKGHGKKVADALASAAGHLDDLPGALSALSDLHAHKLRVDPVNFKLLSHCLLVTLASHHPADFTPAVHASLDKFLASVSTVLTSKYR
Chain of UniProt P01942 (P02088 2-147, chain 2 of 2, further chain): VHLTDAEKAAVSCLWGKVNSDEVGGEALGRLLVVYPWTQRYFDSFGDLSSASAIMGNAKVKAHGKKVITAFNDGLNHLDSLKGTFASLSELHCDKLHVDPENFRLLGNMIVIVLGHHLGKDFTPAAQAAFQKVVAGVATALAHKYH

## IsdB on the cell wall of iron-starved S. aureus strain Newman (from UniProt A6QG30 41-613) (receptor)
Mouse hemoglobin (mouse)
  time at which growth appears around hemoglobin disks on iron-deficient solid medium: 72 h
Human hemoglobin (human)
  time at which growth appears around hemoglobin disks on iron-deficient solid medium: 24 h
